Data from patent US20220062148.

Legend:
[1] = molecular target: T1, Peptide sequence QGKKAPXX
T1 chain: QGKKAP

[2] = molecular target: T2, Peptide sequence XIARQPWN
T2 chain: ARQPWN

[3] = molecular target: T3, Peptide sequence FDNRVGKW
T3 chain: FDNRVGKW

[4] = molecular target: T4, Peptide sequence QAVRPNGM
T4 chain: QAVRPNGM

[5] = molecular target: T5, Peptide sequence WGNRSPLE
T5 chain: WGNRSPLE

B1: Atlantic cod trypsin I (protein)
chain: IVGGYECTKHSQAHQVSLNSGYHFCGGSLVSKDWVVSAAHCYKSVLRVRLGEHHIRVNEGTEQYISSSSVIRHPNYSSYNINNDIMLIKLTKPATLNQYVHAVALPTECAADATMCTVSGWGNTMSSVADGDKLQCLSLPILSHADCANSYPGMITQSMFCAGYLEGGKDSCQGDSGGPVVCNGVLQGVVSWGYGCAERDHPGVYAKVCVLSGWVRDTMANY
Which Ion Precursor Intensities, 5′ incubation (multiplex substrate profiling, cleavage) [1] does the source give for B1 here?
The Ion Precursor Intensities, 5′ incubation (multiplex substrate profiling, cleavage) was 0.

What about the Ion Precursor Intensities, 15′ incubation (multiplex substrate profiling, cleavage) [1] of the same protein?
Its Ion Precursor Intensities, 15′ incubation (multiplex substrate profiling, cleavage) is 0.

And the Ion Precursor Intensities, 60′ incubation (multiplex substrate profiling, cleavage) [1]?
The Ion Precursor Intensities, 60′ incubation (multiplex substrate profiling, cleavage) was 0.

And the Ion Precursor Intensities, 5′ incubation (multiplex substrate profiling, cleavage) [2]?
Its Ion Precursor Intensities, 5′ incubation (multiplex substrate profiling, cleavage) is 0.

And the Ion Precursor Intensities, 15′ incubation (multiplex substrate profiling, cleavage) [2]?
The Ion Precursor Intensities, 15′ incubation (multiplex substrate profiling, cleavage) was 0.

And the Ion Precursor Intensities, 60′ incubation (multiplex substrate profiling, cleavage) [2]?
The Ion Precursor Intensities, 60′ incubation (multiplex substrate profiling, cleavage) was 189000.

What about the Ion Precursor Intensities, 5′ incubation (multiplex substrate profiling, cleavage) [3] of the same protein?
The Ion Precursor Intensities, 5′ incubation (multiplex substrate profiling, cleavage) was 0.

And the Ion Precursor Intensities, 15′ incubation (multiplex substrate profiling, cleavage) [3]?
Its Ion Precursor Intensities, 15′ incubation (multiplex substrate profiling, cleavage) is 0.

And the Ion Precursor Intensities, 60′ incubation (multiplex substrate profiling, cleavage) [3]?
Its Ion Precursor Intensities, 60′ incubation (multiplex substrate profiling, cleavage) is 165000.

What about the Ion Precursor Intensities, 5′ incubation (multiplex substrate profiling, cleavage) [4] of the same protein?
Its Ion Precursor Intensities, 5′ incubation (multiplex substrate profiling, cleavage) is 0.

And the Ion Precursor Intensities, 15′ incubation (multiplex substrate profiling, cleavage) [4]?
The Ion Precursor Intensities, 15′ incubation (multiplex substrate profiling, cleavage) was 0.

What about the Ion Precursor Intensities, 60′ incubation (multiplex substrate profiling, cleavage) [4] of the same protein?
The Ion Precursor Intensities, 60′ incubation (multiplex substrate profiling, cleavage) was 0.

And the Ion Precursor Intensities, 5′ incubation (multiplex substrate profiling, cleavage) [5]?
Its Ion Precursor Intensities, 5′ incubation (multiplex substrate profiling, cleavage) is 0.

And the Ion Precursor Intensities, 15′ incubation (multiplex substrate profiling, cleavage) [5]?
The Ion Precursor Intensities, 15′ incubation (multiplex substrate profiling, cleavage) was 0.

What about the Ion Precursor Intensities, 60′ incubation (multiplex substrate profiling, cleavage) [5] of the same protein?
The Ion Precursor Intensities, 60′ incubation (multiplex substrate profiling, cleavage) was 0.
